These sequences were tested on Escherichia coli TOP10 (assay: shrunken log2 fold change of peptide-encoding DNA abundance (4.5 h post-induction vs induction); higher = less antimicrobial activity (less host growth inhibition)). Settings: time post-induction: 4.5 h; library: site-saturation at positions 5, 18, 19, 20.
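Note: peptides expressed intracellularly from a pBAD plasmid library in pooled LB shake-flask culture, induced with 0.3% L-arabinose, DNA abundance read by NGS, three biological replicates, DESeq2 with apeglm shrinkage.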

Row | Sequence | shrunken log2 fold change
1 | RRIRHRPPRLPRPRPRPPKRPRP | -0.142
2 | RRIRPRPPRLPRPRPRPPNVPRP | -0.0451
3 | RRIRYRPPRLPRPRPRPVFHPRP | -0.492
4 | RRIRVRPPRLPRPRPRPNHPPRP | -0.0266
5 | RRIRGRPPRLPRPRPRPSEFPRP | 0.122
6 | RRIRNRPPRLPRPRPRPEYEPRP | -0.156
7 | RRIRTRPPRLPRPRPRPWMFPRP | -0.355
8 | RRIRWRPPRLPRPRPRPQRWPRP | 0.308
9 | RRIRVRPPRLPRPRPRPKDDPRP | 0.0252
10 | RRIRFRPPRLPRPRPRPHADPRP | 0.0798
11 | RRIRERPPRLPRPRPRPGMDPRP | -0.696
12 | RRIRNRPPRLPRPRPRPTECPRP | -0.0689
13 | RRIRIRPPRLPRPRPRPKQNPRP | -0.197
14 | RRIRWRPPRLPRPRPRPKCTPRP | 1.21
15 | RRIRHRPPRLPRPRPRPEFHPRP | -0.0718
16 | RRIRMRPPRLPRPRPRPLASPRP | 1.34
17 | RRIRMRPPRLPRPRPRPKYTPRP | 0.169
18 | RRIRLRPPRLPRPRPRPSDKPRP | -0.179
19 | RRIRKRPPRLPRPRPRPDDKPRP | 0.107
20 | RRIRQRPPRLPRPRPRPAEFPRP | -0.0119
21 | RRIRHRPPRLPRPRPRPLFDPRP | -0.692
22 | RRIRNRPPRLPRPRPRPEKDPRP | -0.0532
23 | RRIRIRPPRLPRPRPRPSMYPRP | -1.53

Row | Sequence | shrunken log2 fold change
24 | RRIRPRPPRLPRPRPRPWYLPRP | -0.591
25 | RRIRDRPPRLPRPRPRPFASPRP | -0.0205
26 | RRIRQRPPRLPRPRPRPSTAPRP | 0.0789
27 | RRIRRRPPRLPRPRPRPIEPPRP | -0.015
28 | RRIRCRPPRLPRPRPRPGKLPRP | -0.111
29 | RRIRVRPPRLPRPRPRPSSRPRP | -0.231
30 | RRIRKRPPRLPRPRPRPKATPRP | 0.0944
31 | RRIRERPPRLPRPRPRPNHMPRP | -0.31
32 | RRIRRRPPRLPRPRPRPTGRPRP | 0.489
33 | RRIRERPPRLPRPRPRPQVTPRP | -0.118
34 | RRIRRRPPRLPRPRPRPGHGPRP | 1.04
35 | RRIRTRPPRLPRPRPRPAYIPRP | 0.412
36 | RRIRRRPPRLPRPRPRPRMSPRP | 0.938
37 | RRIRLRPPRLPRPRPRPRYMPRP | -0.982
38 | RRIRRRPPRLPRPRPRPPDTPRP | 0.436
39 | RRIRMRPPRLPRPRPRPCGCPRP | 0.0371
40 | RRIRERPPRLPRPRPRPWLAPRP | 0.564
41 | RRIRKRPPRLPRPRPRPSANPRP | 0.0126
42 | RRIRSRPPRLPRPRPRPSFAPRP | 0.0497
43 | RRIRPRPPRLPRPRPRPHVPPRP | 3.25
44 | RRIRHRPPRLPRPRPRPTNCPRP | -0.197
45 | RRIRLRPPRLPRPRPRPTSMPRP | -0.154
46 | RRIRRRPPRLPRPRPRPQPAPRP | 0.387

Row | Sequence | shrunken log2 fold change
47 | RRIRLRPPRLPRPRPRPFHCPRP | -0.0953
48 | RRIRHRPPRLPRPRPRPKHKPRP | -0.297
49 | RRIRLRPPRLPRPRPRPRYRPRP | -0.374
50 | RRIRHRPPRLPRPRPRPVHCPRP | -0.159
51 | RRIRQRPPRLPRPRPRPTREPRP | -0.081
52 | RRIRYRPPRLPRPRPRPSRYPRP | -0.122
53 | RRIRLRPPRLPRPRPRPFFHPRP | -0.37
54 | RRIRFRPPRLPRPRPRPGIPPRP | -0.183
55 | RRIRTRPPRLPRPRPRPMVLPRP | -0.0596
56 | RRIRFRPPRLPRPRPRPCDYPRP | -0.112
57 | RRIRGRPPRLPRPRPRPVERPRP | 0.5
58 | RRIRYRPPRLPRPRPRPQYFPRP | -1.64
59 | RRIRERPPRLPRPRPRPNKVPRP | -0.372
60 | RRIRCRPPRLPRPRPRPEGPPRP | 0.261
61 | RRIRLRPPRLPRPRPRPQHWPRP | -0.044
62 | RRIRNRPPRLPRPRPRPVSVPRP | -0.143
63 | RRIRKRPPRLPRPRPRPNTIPRP | 0.0945
64 | RRIRYRPPRLPRPRPRPRQYPRP | 0.0153
65 | RRIRHRPPRLPRPRPRPDQVPRP | -0.0632
66 | RRIRVRPPRLPRPRPRPFWPPRP | 0.162
67 | RRIRMRPPRLPRPRPRPDQQPRP | -0.0225
68 | RRIRGRPPRLPRPRPRPHELPRP | 0.871
69 | RRIRCRPPRLPRPRPRPISHPRP | -0.486

Row | Sequence | shrunken log2 fold change
70 | RRIRPRPPRLPRPRPRPFKRPRP | -0.00475
71 | RRIRERPPRLPRPRPRPALVPRP | 0.193
72 | RRIRQRPPRLPRPRPRPWIEPRP | -0.0606
73 | RRIRIRPPRLPRPRPRPNNLPRP | -0.69
74 | RRIRIRPPRLPRPRPRPVYEPRP | -0.12
75 | RRIRERPPRLPRPRPRPQRHPRP | 1.63
76 | RRIRQRPPRLPRPRPRPPLVPRP | 0.931
77 | RRIRFRPPRLPRPRPRPFPFPRP | -0.177
78 | RRIRCRPPRLPRPRPRPAIMPRP | -0.0676
79 | RRIRTRPPRLPRPRPRPAQWPRP | 0.0699
80 | RRIRLRPPRLPRPRPRPSQDPRP | -0.282
81 | RRIRHRPPRLPRPRPRPEFVPRP | 0.02
82 | RRIRKRPPRLPRPRPRPCKFPRP | 0.142
83 | RRIRSRPPRLPRPRPRPTCIPRP | 0.0869
84 | RRIRERPPRLPRPRPRPPKEPRP | 0.0608
85 | RRIRCRPPRLPRPRPRPIRQPRP | -0.0914
86 | RRIRRRPPRLPRPRPRPFVCPRP | 0.191
87 | RRIRKRPPRLPRPRPRPQMVPRP | -0.0031
88 | RRIRARPPRLPRPRPRPQHWPRP | 0.0917
89 | RRIRSRPPRLPRPRPRPLNNPRP | -0.124
90 | RRIRIRPPRLPRPRPRPNQTPRP | -0.00271
91 | RRIRGRPPRLPRPRPRPCSWPRP | 0.19

From the supplement of paper PMC9112550, “Optimization of the antimicrobial peptide Bac7 by deep mutational scanning” (BMC Biology, 2022)
